Laboratory results from patent US20220177587A1, “METHODS AND USES OF VARIANT CD80 FUSION PROTEINS AND RELATED CONSTRUCTS” (Alpine Immune Sciences, Inc., priority 2018, published 2022).

What was measured:
[1] = target: huCTLA4 (Homo sapiens, UniProt P16410); experiment: Antagonism of CD80/CTLA-4 binding on CHO cells expressing CTLA-4; parameters: Full-length mammalian surface expression constructs for each of human CTLA-4, PD-L1, and CD28; settings: 25 nM fluorochrome-conjugated wild-type CD80-Fc; FIG. 21
Procedure: After washing, cells were incubated with 25 nM fluorochrome-conjugated wild-type CD80-Fc. Bound fluorescent competitor protein was detected and measured by flow cytometry.
The multivalent variant CD80 IgSF domain fusion proteins were assessed to test for blocking of the PD-L1/PD-1 and CTLA-4/CD80 interaction performed substantially as described in Example 15. CHO/OKT3/PD-L1 and CHO/CTLA-4 cells were counted and plated at 100,000 cells/well and then incubated with fluorescently conjugated PD-1-Fc and CD80-Fc. Exemplary multivalent variant CD80 IgSF domain fusion proteins were incubated with the cells for 30 minutes. […] Cells were washed and incubated with 100 nM fluorescently conjugated PD-1-Fc and CD80-Fc competitor for 30 minutes. Cells were then washed and samples were acquired on a flow cytometer and MFIs of the fluorescently labeled molecules were determined.

[2] = tested on: MC38 hPD-L1 tumor cells; experiment: Flow cytometry of tumors and draining lymph nodes of treated mice; type: in vivo, mouse; settings: three days following the 2nd dose; vs Fc control or anti-PD-L1
From the text: Tissues were processed to single cell suspensions (tumors were enzymatically digested as a part of the processing, whereas draining LN were not), and subjected to multi-color flow cytometric analysis of CD8+ T cells on the CD45+ cell subset (immune cells in either the LN or tumor), as well as % hIgG+ staining on the CD45− cell subset (tumor cells) to detect molecules (CD80-IgV-Fc or anti-PD-L1) bound to the tumor cells.

huCTLA4, sequence (P16410 36-223): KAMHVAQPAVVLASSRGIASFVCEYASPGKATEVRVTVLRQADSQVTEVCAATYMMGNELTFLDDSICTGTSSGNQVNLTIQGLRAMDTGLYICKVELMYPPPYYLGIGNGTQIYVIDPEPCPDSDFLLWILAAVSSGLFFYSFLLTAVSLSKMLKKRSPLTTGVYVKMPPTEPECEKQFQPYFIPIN

H18Y/A26E/E35D/M47L/V68M/A71G/D90G: variant CD80 IgV-Fc (inert), IgV SEQ ID NO:491
antagonism of binding of CD80 to CTLA-4 [1]: antagonized the binding of CD80 to CTLA-4 | percentages of CD8+ T cells in TIL and LN [2]: significantly greater
